The text below walks through data of patent US8846003.

In general, Kd refers to the constant that tells how readily two partners part at equilibrium. A higher Kd goes with lower affinity.

No end group written: not given here.

The experiment addresses collagen. The experiment can be described thus: SPR, Biacore 2000; 1500 RU collagen amine-coupled to CM-3 chip, SILY injected at 100 µM to 1.5 µM; from on-off binding kinetics. For orientation: SPR reads the build-up and loss of mass on a sensor chip optically.

B1: peptide … (peptide)
peptide: RRANAALKAGELYKSILYGC-NH2
With B1, the Kd stood at 1200 nM. This counts as single-digit micromolar.
